The target of experiment [1] is human 4-1BB on Jurkat-hu4-1BB-NFκB-luc2 reporter cells (human) (UniProt Q07011). Nature of the experiment: cell-based or functional assay. Further details: unit not given beside the values.
Experiment [2] concerns the target human PD-L1 on MKN45-huPD-L1 cells (human) (UniProt Q9NZQ7). In words: flow cytometry on MKN45-huPD-L1 cells, area under the binding curve. Details: unit not given beside the values.

Sequence of human 4-1BB on Jurkat-hu4-1BB-NFκB-luc2 reporter cells (human) (Q07011 24-255): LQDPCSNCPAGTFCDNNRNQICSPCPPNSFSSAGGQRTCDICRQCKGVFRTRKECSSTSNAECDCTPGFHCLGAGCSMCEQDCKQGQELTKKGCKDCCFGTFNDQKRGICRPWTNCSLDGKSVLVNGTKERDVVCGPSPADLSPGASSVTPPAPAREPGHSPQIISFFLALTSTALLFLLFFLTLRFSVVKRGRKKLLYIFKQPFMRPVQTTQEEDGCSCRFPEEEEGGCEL
Sequence of human PD-L1 on MKN45-huPD-L1 cells (human) (Q9NZQ7 19-290 limits assumed): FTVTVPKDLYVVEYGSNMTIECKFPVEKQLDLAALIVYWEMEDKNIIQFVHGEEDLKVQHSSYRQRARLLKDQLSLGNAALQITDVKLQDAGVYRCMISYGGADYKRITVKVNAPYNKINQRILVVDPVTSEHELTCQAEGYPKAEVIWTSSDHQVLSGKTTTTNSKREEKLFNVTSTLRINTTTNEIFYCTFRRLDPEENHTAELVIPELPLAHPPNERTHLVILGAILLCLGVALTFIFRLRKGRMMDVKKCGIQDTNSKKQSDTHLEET

Regarding DP47 huIgG1 P329G LALA (antibody), in experiment [1], the AUC of NFκB-activation-induced Luciferase activity curve came to 112. In addition, the AUC in experiment [2] is 248.

These data come from patent US20230086210A1.
